Experimental data from patent publication US5344777.

Target: protein having a molecular weight of about 44,000 which constitutes the membrane-bound alcohol dehydrogenase complex of Acetobacter altoacetigenes MH-24 (cytochrome c) (Acetobacter altoacetigenes MH-24)

ADH enzyme activity (U/mg protein) in cell homogenate of transformed ADH-deleted mutant 10-80: 0.4 U/mg protein
Substance: protein having a molecular weight of about 72,000 which constitutes the membrane-bound alcohol dehydrogenase complex of Acetobacter altoacetigenes MH-24 (enzyme)
